Legend:
[1] = biological target: BcM60K (metallopeptidase domain of the Bacteroides caccae peptidase_M60 O-glycopeptidase BcM60K) (Bacteroides caccae)

Substance | KM of cleavage of the FRET substrate (global fit of progress curves) (BT4244) | KM of cleavage of the FRET substrate (global fit of progress curves) [1]
FRET substrate mNeonGreen-MUC2_R1 linker-mScarlet-I, Tn-modified (domain or fragment) | 5.6 µM | –
FRET substrate mNeonGreen-MUC5AC_R2 linker-mScarlet-I, C1-modified (domain or fragment) | 2.9 µM | 6.2 µM
FRET substrate mNeonGreen-MUC5AC_R2 linker-mScarlet-I, 6SC1-modified (domain or fragment) | – | 2.5 µM
FRET substrate mNeonGreen-MUC5AC_R2 linker-mScarlet-I, Tn-modified (domain or fragment) | 2.9 µM | 7.8 µM
FRET substrate mNeonGreen-IgA1 hinge linker-mScarlet-I, Tn-modified (domain or fragment) | 1 µM | –
FRET substrate mNeonGreen-MUC5AC_R2 linker-mScarlet-I, C2-modified (domain or fragment) | – | 4.5 µM
FRET substrate mNeonGreen-MUC5AC_R2 linker-mScarlet-I, 3SC1-modified (domain or fragment) | – | 7.6 µM

— article PMC13355702
